According to the RNAGym collection of RNA variant scans (doi:10.1101/gr.219683.116):

B1: mRNA-splicing (parent)
chain: AGUUGCUGCUGGGAGCUCCAGCACAGUGAAAUGGACAGAAGGGCAGAGCAA

Variants of: B1
Assay: exon inclusion enrichment index; higher = more inclusion; WT1 exon 5 minigene, HEK293

Row | Variant | exon inclusion enrichment index
1 | C6A U7C C9A U10C A37G G38A | 3
2 | C6A U7C C9A U10C A23G C24A | 4.13
3 | C6A U7C C9A U10C A23G C24G | 4.2
4 | C6A U7C C9A U10C A23G C24U | 1.95
5 | C6A U7C C9A U10C G11A G12A | 2.21
6 | C6A U7C C9A U10C G11A G12C | 2.2
7 | C6A U7C C9A U10C G11A G12U | 1.87
8 | C6A U7C C9A U10A G11U | 2.49
9 | C6A U7C C9A U10A G11A | 1.98
10 | C6A U7C C9A U10A G11C | 2.78
11 | C6A U7C C9A U10C A20C | 3.02
12 | C6A U7C C9A U10C A20G | 3.85
13 | C6A U7C C9A U10C A20U | 3.39
14 | C6A U7C C9A U10C A31U U32C | 3.74
15 | C6A U7C C9A U10C A31U U32G | 2.15
16 | C6A U7C C9A U10C A31U U32A | 0.902
17 | C6A U7C C9A U10C A25U | 3.47
18 | C6A U7C C9A U10C A25C | 4.45
19 | C6A U7C C9A U10C A25G | 4.53
20 | C6A U7C C9A U10C G11C G12A | 2.17
21 | C6A U7C C9A U10C G11C G12U | 2.2

Row | Variant | exon inclusion enrichment index
22 | C6A U7C C9A U10C G11C G12C | 2.59
23 | C6A U7C C9A U10C C22A A23G | 3.9
24 | C6A U7C C9A U10C C22A A23C | 3.88
25 | C6A U7C C9A U10C C22A A23U | 2.92
26 | C6A U7C C9A U10C G21C C22A | 3.4
27 | C6A U7C C9A U10C G21C C22U | 3.3
28 | C6A U7C C9A U10C G21C C22G | 3.98
29 | C6A U7C C9A U10C G15U C16U | 3.12
30 | C6A U7C C9A U10C G15U C16A | 2.78
31 | C6A U7C C9A U10C G15U C16G | 3.06
32 | C6A U7C C9A U10C C36G A37U | 1.89
33 | C6A U7C C9A U10C C36G A37C | 1.56
34 | C6A U7C C9A U10C C36G A37G | 1.36
35 | C6A U7C C9A U10C C36U | 1.34
36 | C6A U7C C9A U10C C36A | 2.48
37 | C6A U7C C9A U10C C36G | 2.75
38 | C6A U7C C9A U10C A14G G15C | 2.29
39 | C6A U7C C9A U10C A14G G15A | 3.53
40 | C6A U7C C9A U10C A14G G15U | 2.01
41 | C6A U7C C9A U10C A29C A30C | 3.72
42 | C6A U7C C9A U10C A29C A30G | 4.07

Row | Variant | exon inclusion enrichment index
43 | C6A U7C C9A U10C A29C A30U | 2.76
44 | C6A U7C C9A | 1.99
45 | C6A U7C C9A U10A | 1.36
46 | C6A U7C C9A U10C | 3.63
47 | C6A U7C C9A U10C A14U G15U | 2.08
48 | C6A U7C C9A U10C A14U G15A | 2.06
49 | C6A U7C C9A U10C A14U G15C | 2.67
50 | C6A U7C C9A U10C A30G A31U | 1.6
51 | C6A U7C C9A U10C A30G A31C | 0.677
52 | C6A U7C C9A U10C A30G A31G | 1.7
53 | C6A U7C C9A U10C G28C | 3.06
54 | C6A U7C C9A U10C G28A | 1.59
55 | C6A U7C C9A U10C G28U | 1.34
56 | C6A U7C C9A U10C C16A | 3.82
57 | C6A U7C C9A U10C C16U | 3.55
58 | C6A U7C C9A U10C C16G | 2.49
59 | C6A U7C C9A U10C C24G | 3.61
60 | C6A U7C C9A U10C C24U | 1.66
61 | C6A U7C C9A U10C C24A | 2.94
62 | C6A U7C C9A U10C C24A A25C | 4.45
63 | C6A U7C C9A U10C C24A A25U | 2.96

Row | Variant | exon inclusion enrichment index
64 | C6A U7C C9A U10C C24A A25G | 2.94
65 | C6A U7C C9A U10C A25C G26C | 4.09
66 | C6A U7C C9A U10C A25C G26U | 3.89
67 | C6A U7C C9A U10C A25C G26A | 4.93
68 | C6A U7C C9A U10C A20G G21U | 1.35
69 | C6A U7C C9A U10C A20G G21C | 3.34
70 | C6A U7C C9A U10C A20G G21A | 3.72
71 | C6A U7C C9A U10C G13U A14G | 2.11
72 | C6A U7C C9A U10C G13U A14C | 2.46
73 | C6A U7C C9A U10C G13U A14U | 2.48
74 | C6A U7C C9A U10C G26A U27A | 2.91
75 | C6A U7C C9A U10C G26A U27C | 4.65
76 | C6A U7C C9A U10C G26A U27G | 3.54
77 | C6A U7C C9A U10C A37U G38A | 1.46
78 | C6A U7C C9A U10C A37U G38U | 1.27
79 | C6A U7C C9A U10C A37U G38C | 2.21
80 | C6A U7C C9A U10C G13A A14U | 3.22
81 | C6A U7C C9A U10C G13A A14G | 3
82 | C6A U7C C9A U10C G13A A14C | 3.39
83 | C6A U7C C9A U10C G12U G13C | 0.584
